{"source": "paper PMC5443773", "about": "(Scientific Reports, 2017)", "proteins": {"B1": {"name": "El Tor cholera toxin B-pentamer (natural protein)", "chain": "TPQNITDLCAEYHNTQIYTLNDKIFSYTESLAGKREMAIITFKNGAIFQVEVPGSQHIDSQKKAIERMKDTLRIAYLTEAKVEKLCVWNNKTPHAIAAISMAN"}}, "molecular_target": "the molecule itself", "experiment": "crystal structure", "data": [{"protein": "B1", "values": [{"measurement": "stoichiometry N", "value": 5}]}]}
